Experimental data from patent US20080267971A1 (published 2008).
Substitutions are numbered along the chain they refer to.

B1: mAb 5.35.1 (antibody, V domains shown)
VH: EVQLVESGGGVVRPGGSLRLSCTTSGFTFDDYGMSWVRQAPGKGLEWVSGINWNGGSTVYADSVKGRFTISRDSAKNSLYLQMNSLRAEDTALYHCARNKQWLWYFDLWGRGTLVTVSS
VL: EIVMTQSPATLSVSPGERATLSCRASQSVSSNLAWYQQKPGQAPRLLIYGASTRATGIPARFSGSGSGTEFTLTISSLQSEDFAVYYCEQYNNWPLTFGGGTKVEIKR
notes: Human hybridoma IgG (XenoMouse); also called x5.35
B2: mAb 5.56.1 (antibody, V domains shown)
VH: QVQLVESGGGVVQPGRSLRLSCAASGFTFSSYGMHWVRQAPGKGLEWVAVIWYDGSNKYYADSVKGRFTISRDNSKNTLYLQMNSLRAEDTAVYYCAREDNWNFYFDYWGQGTLVTVSS
VL: DIQMTQSPSSLSASVGDRVTITCRASQGISYYLAWYQQKPGKVPKLLIYAASTLQSGVPSRFSGSGSGTDFTLTISSLQPEDVATYYCQKYNSAPFTFGPGTKVDIKR
notes: Human hybridoma IgG (XenoMouse); also called x5.56
B3: mAb 5.108.1 (antibody, V domains shown)
VH: QVQLVESGGGVVQPGRSLRLSCAASGFTFSSYGMHWVRQAPGKGLEWVAVIWYDGSNKYYADSVKGRFTISRDNSKNTLYLQMNSLRAEDTAMYYCARELALWGQGTLVTVSS
VL: EIVMTQSPATLSVSPGERATLSCRASQSVSSYLAWYQQKPGQAPRLLIYGAFTRATGIPARFRGSGSGPEFTLTISSLQSEDFAVYYCQQYSHWWTFGQGTKVEIKR
notes: Human hybridoma IgG (XenoMouse); also called x5.108
B4: mAb 5.39.1 (antibody, V domains shown)
VH: QVQLVQSGAEVTKPGASVKVSCKASGYTFTAYHMYWVRQAPGQGLEWMGWINPNSGGTNYAQKFQGRVTMTRDTSISTAYMELSRLRSDDSPVYYCARDQGIAAAGPFDYWGQGTLVTVSS
VL: B3 VL with E17D, Y32N, L33F, A51S, F52S, R63S, P69T, S92H, H93Y, I105F
notes: Human hybridoma IgG (XenoMouse); also called x5.39
B5: mAb 5.40.2 (antibody, V domains shown)
VH: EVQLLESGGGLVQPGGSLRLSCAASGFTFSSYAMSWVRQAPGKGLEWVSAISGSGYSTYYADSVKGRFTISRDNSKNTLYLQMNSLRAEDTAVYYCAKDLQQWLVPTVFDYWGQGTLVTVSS
VL: B3 VL with Y32N, A34V, G50D, A51S, F52S, A60V, R63S, P69T, S92N
notes: Human hybridoma IgG (XenoMouse); also called x5.40

Assays:
Test in all cases: ELISA
[1] = target: T1, Human Ang-1/2 BsmI chimeric molecule (human)
T1 chain: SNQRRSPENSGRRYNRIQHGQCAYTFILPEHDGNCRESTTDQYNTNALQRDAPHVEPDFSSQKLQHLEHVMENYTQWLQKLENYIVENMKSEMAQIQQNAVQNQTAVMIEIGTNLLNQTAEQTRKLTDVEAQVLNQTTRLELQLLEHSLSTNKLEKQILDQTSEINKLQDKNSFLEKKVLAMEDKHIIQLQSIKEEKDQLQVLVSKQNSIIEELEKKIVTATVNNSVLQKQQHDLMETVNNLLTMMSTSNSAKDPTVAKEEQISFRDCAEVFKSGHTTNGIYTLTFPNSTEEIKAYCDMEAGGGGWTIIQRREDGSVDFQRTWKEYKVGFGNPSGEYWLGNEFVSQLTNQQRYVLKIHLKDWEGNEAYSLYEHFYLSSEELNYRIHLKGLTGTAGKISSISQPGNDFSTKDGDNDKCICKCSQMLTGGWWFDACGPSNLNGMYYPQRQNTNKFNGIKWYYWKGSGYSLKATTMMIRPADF

[2] = target: T2, Mouse/Human Ang-2 StuI chimeric molecule (mouse; human, UniProt O35608 19-496)
T2 construct: also called M/H Stul 310-496
T2 chain: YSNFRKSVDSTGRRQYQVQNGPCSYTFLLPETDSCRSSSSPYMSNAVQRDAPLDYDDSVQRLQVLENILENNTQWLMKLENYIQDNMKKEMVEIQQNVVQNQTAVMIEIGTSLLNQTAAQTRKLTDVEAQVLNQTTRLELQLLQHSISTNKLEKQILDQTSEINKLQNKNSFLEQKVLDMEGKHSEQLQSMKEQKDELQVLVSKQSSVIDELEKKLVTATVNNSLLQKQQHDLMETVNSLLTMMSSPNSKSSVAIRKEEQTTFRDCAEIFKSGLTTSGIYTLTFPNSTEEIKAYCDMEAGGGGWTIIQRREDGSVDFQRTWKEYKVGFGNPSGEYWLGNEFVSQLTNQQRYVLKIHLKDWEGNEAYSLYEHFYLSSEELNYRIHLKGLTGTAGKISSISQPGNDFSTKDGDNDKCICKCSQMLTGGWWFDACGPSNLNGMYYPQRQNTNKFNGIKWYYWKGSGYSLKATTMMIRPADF

[3] = target: T3, Mouse/Human chimeric Ang-2 with the human StuI-TfiI fragment (mouse/human chimera, UniProt O35608 19-496)
T3 construct: also called Stu-Tfil 310-400
T3 chain: T2 chain with K386T, G393A, N403S, G410S, T424S, M440Q, R445K

human Ang-2 V345M = target: T4, human Ang-2 V345M (human, UniProt O15123 19-496)
T4 sequence: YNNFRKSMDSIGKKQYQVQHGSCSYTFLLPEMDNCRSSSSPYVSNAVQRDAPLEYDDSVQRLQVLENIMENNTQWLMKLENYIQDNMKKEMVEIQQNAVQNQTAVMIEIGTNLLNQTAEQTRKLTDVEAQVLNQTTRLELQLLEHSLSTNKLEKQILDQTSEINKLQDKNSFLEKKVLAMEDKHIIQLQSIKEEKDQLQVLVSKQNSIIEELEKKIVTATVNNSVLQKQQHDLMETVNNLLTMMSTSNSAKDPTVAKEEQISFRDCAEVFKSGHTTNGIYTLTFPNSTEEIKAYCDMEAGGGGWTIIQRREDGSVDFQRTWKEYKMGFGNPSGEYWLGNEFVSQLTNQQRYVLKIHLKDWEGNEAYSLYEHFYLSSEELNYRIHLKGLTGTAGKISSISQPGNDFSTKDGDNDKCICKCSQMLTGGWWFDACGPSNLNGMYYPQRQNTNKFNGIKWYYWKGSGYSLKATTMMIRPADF

human Ang-2 H375Q = target: T5, human Ang-2 H375Q (human, UniProt O15123 19-496)
T5 sequence: T4 sequence with M326V, H356Q

Row | Binder | % of binding to human Ang-2 [1] [%] | % of binding to human Ang-2 [2] [%] | % of binding to human Ang-2 [3] [%] | % of binding to human Ang-2 (human Ang-2 V345M) [%] | % of binding to human Ang-2 (human Ang-2 H375Q) [%]
1 | B1 | 100 | 100 | 100 | 100 | 100
2 | B2 | 100 | 100 | 100 | 100 | 100
3 | B3 | 100 | 100 | 36 | 100 | 100
4 | B4 | 100 | 100 | 25 | 100 | 100
5 | B5 | 100 | 100 | 65 | 100 | 100
